Measured values from the supplement of paper PMC10065799, “High-throughput profiling of sequence recognition by tyrosine kinases and SH2 domains using bacterial peptide display” (eLife, 2023).
Blank lines part the entries; values can stand above or below the sequence they belong to.

Legend:
c-Src SH2 = experiment: SH2 binding enrichment of the phosphorylated peptide, bacterial display (enrichment ratio); higher = better substrate or ligand; peptides without Tyr show the background
Grb2 SH2 = Grb2 SH2 (UniProt P62993); experiment: as above
SHP2-C SH2 = experiment: as above
Fyn = Fyn (UniProt P06241); experiment: phosphorylation enrichment, bacterial display (enrichment ratio); higher = better substrate or ligand; peptides without Tyr show the background
MERTK = MERTK (UniProt Q12866); experiment: as above
EPHB2 = EPHB2 (UniProt P29323); experiment: as above
c-Src = experiment: as above
c-Abl (mouse) = experiment: as above
Fes = Fes (UniProt P07332); experiment: as above
Fer (mouse) = experiment: as above
AncSZ = experiment: as above
EPHB1 = EPHB1 (UniProt P54762); experiment: as above
FGFR3 = FGFR3 (UniProt P22607); experiment: as above
Jak2 = Jak2 (UniProt O60674); experiment: as above
FGFR1 = FGFR1 (UniProt P11362); experiment: as above
Hck = Hck (UniProt P08631); experiment: as above
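For SH2 binding enrichment of the phosphorylated peptide, bacterial display in this document: peptide library displayed on the E. coli surface as eCPX fusions, selected cells deep-sequenced, score is each peptide's frequency after selection divided by its frequency in the input.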
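For phosphorylation enrichment, bacterial display in this document: 11-residue human phosphosite peptides and single-mutation variants displayed on the E. coli surface, counted by deep sequencing, each peptide's frequency after selection divided by its frequency in the unselected input library; frequency after pTyr selection over input frequency; kinase dosed for 20-30% of maximal phosphorylation in three min.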

Chain of Hck (P08631 whole entry, looked up, the tested form may be a part): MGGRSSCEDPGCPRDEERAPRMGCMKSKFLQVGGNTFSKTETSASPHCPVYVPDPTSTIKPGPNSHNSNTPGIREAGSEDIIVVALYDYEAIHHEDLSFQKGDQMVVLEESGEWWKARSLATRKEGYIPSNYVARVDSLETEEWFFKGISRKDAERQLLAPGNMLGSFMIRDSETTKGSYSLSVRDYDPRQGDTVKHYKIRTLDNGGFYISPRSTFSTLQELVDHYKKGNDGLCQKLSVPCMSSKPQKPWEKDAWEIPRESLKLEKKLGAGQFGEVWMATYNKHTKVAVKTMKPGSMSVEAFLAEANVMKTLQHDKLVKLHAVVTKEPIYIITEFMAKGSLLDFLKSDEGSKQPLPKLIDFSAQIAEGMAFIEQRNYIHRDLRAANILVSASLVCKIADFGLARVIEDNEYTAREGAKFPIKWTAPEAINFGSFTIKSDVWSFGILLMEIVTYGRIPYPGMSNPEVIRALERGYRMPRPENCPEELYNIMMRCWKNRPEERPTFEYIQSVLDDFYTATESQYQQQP
Chain of Jak2 (O60674 whole entry, looked up): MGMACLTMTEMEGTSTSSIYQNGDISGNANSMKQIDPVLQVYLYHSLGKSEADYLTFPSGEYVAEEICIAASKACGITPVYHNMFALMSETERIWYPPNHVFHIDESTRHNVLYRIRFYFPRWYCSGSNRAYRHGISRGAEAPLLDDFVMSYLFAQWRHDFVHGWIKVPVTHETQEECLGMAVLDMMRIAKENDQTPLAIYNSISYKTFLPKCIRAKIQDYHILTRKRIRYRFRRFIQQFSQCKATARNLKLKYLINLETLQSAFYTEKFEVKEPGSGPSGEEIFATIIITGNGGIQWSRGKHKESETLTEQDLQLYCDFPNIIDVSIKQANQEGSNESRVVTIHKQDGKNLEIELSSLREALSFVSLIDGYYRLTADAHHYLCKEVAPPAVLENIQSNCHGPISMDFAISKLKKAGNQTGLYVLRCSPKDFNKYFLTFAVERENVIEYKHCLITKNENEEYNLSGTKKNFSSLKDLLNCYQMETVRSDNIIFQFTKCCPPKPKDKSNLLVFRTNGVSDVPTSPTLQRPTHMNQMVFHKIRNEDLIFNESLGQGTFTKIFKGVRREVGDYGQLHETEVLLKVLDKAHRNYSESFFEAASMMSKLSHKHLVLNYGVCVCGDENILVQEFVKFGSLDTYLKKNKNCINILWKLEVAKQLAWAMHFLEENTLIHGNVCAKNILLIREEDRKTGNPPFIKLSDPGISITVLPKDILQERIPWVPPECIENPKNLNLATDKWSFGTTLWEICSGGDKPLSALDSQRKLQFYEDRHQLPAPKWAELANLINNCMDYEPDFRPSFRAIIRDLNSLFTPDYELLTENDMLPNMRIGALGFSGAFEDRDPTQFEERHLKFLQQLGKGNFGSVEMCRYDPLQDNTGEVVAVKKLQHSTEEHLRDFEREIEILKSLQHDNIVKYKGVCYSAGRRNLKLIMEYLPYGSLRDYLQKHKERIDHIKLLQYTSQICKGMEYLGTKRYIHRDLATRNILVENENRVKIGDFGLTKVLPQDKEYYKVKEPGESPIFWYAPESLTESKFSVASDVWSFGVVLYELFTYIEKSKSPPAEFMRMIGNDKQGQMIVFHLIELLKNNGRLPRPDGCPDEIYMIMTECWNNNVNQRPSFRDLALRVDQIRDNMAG
Chain of Fyn (P06241 whole entry, looked up): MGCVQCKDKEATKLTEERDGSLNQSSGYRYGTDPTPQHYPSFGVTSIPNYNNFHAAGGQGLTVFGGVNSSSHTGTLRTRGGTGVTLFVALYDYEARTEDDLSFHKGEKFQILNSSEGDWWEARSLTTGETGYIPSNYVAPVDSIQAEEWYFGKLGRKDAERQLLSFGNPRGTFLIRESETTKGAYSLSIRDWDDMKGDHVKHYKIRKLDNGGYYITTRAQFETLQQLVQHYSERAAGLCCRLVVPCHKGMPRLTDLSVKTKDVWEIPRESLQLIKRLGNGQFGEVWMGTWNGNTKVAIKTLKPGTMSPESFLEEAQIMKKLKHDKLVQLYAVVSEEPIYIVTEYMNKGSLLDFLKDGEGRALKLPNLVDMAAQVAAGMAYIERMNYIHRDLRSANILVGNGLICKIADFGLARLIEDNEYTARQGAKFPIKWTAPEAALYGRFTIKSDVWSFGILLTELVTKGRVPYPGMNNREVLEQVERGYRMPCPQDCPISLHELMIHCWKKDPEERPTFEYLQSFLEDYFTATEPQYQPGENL
Chain of EPHB2 (P29323 whole entry, looked up): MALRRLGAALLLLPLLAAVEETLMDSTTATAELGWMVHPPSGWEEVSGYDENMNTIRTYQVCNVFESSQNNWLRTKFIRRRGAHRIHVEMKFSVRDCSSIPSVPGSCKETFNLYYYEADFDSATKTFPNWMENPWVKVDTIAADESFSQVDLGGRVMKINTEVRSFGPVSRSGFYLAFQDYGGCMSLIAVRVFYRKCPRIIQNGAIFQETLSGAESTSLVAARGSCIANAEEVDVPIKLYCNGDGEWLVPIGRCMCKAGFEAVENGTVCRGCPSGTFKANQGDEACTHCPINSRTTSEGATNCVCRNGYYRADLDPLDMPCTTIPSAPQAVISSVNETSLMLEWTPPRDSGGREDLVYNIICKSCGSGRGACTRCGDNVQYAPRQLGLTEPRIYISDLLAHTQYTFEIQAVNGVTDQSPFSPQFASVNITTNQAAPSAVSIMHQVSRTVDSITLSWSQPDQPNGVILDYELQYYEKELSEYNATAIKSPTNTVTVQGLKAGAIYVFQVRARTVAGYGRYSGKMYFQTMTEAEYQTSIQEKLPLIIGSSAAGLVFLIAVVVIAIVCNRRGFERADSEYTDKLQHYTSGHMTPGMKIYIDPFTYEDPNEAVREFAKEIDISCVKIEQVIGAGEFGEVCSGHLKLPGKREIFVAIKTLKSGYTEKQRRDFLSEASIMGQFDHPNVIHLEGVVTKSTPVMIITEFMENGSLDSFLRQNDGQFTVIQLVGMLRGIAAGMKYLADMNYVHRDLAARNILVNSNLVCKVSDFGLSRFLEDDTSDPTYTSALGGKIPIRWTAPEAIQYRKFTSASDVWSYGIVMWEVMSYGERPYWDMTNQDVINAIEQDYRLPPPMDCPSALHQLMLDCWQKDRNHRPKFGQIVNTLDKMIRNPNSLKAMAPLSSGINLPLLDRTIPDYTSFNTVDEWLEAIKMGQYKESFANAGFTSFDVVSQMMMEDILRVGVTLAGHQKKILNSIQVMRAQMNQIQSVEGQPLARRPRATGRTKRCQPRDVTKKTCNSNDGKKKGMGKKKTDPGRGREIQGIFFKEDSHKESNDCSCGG
Chain of FGFR3 (P22607 whole entry, looked up): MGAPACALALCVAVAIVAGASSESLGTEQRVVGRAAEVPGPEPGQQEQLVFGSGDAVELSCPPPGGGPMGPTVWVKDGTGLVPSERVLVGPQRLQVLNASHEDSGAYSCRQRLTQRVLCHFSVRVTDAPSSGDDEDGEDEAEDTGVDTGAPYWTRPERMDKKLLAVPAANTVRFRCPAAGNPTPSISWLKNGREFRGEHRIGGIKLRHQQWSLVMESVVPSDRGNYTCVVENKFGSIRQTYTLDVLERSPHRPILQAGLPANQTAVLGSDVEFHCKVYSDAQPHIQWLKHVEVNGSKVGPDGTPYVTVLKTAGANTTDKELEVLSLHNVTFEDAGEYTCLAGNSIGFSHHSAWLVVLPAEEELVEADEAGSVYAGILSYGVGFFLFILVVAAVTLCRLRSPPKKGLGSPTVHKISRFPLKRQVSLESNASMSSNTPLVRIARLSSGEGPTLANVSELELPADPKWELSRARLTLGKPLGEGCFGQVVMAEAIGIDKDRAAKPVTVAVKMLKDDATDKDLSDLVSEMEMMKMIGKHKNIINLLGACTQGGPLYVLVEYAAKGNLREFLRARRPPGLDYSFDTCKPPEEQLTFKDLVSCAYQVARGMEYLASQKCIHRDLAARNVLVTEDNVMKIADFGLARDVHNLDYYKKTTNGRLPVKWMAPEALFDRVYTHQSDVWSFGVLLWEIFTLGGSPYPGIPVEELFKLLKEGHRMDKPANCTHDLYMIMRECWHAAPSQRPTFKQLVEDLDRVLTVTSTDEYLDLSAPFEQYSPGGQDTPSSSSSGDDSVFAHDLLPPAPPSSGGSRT
Chain of Fes (P07332 whole entry, looked up): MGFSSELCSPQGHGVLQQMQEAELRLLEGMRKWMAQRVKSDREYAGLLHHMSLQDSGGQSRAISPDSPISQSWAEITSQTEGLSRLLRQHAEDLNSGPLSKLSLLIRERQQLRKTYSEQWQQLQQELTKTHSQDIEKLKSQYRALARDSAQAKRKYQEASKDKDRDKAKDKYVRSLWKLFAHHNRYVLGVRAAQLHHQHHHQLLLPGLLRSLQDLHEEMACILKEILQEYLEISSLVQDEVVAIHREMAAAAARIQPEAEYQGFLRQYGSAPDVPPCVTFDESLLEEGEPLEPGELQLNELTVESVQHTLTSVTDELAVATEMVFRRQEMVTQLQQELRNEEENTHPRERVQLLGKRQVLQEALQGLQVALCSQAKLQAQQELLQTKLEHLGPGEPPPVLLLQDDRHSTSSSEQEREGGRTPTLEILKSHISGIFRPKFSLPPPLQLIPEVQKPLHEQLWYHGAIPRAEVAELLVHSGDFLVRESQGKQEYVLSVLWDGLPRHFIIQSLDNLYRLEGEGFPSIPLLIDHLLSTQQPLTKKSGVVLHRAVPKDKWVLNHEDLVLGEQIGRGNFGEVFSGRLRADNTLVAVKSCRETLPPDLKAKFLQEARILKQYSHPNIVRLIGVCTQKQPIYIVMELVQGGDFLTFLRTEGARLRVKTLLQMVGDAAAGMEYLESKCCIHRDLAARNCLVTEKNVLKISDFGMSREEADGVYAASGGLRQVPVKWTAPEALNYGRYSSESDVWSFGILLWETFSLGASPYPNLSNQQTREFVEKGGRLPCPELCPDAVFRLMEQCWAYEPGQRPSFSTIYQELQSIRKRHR

- SH2 binding enrichment (c-Src SH2): 0.608
- SH2 binding enrichment (Grb2 SH2): 0.682
- SH2 binding enrichment (SHP2-C SH2): 0.593
Sequence: IKSSIYDNRNE [ARAP2_Y380_K384N]
- phosphorylation enrichment (Fyn): 0.464
- phosphorylation enrichment (MERTK): 0.405
- phosphorylation enrichment (EPHB2): 0.502
- phosphorylation enrichment (c-Src): 0.399
- phosphorylation enrichment (c-Abl (mouse)): 0.397
- phosphorylation enrichment (Fes): 0.584
- phosphorylation enrichment (Fer (mouse)): 0.33
- phosphorylation enrichment (AncSZ): 0.505
- phosphorylation enrichment (EPHB1): 0.413
- phosphorylation enrichment (FGFR3): 0.388
- phosphorylation enrichment (Jak2): 0.466
- phosphorylation enrichment (FGFR1): 0.443
- phosphorylation enrichment (Hck): 0.696

- SH2 binding enrichment (c-Src SH2): 0.753
- SH2 binding enrichment (Grb2 SH2): 0.917
- SH2 binding enrichment (SHP2-C SH2): 0.825
Sequence: KMKGDYFRSLA [YWHAG_Y130_Y133S_YF]
- phosphorylation enrichment (Fyn): 0.399
- phosphorylation enrichment (MERTK): 0.437
- phosphorylation enrichment (EPHB2): 0.361
- phosphorylation enrichment (c-Src): 0.456
- phosphorylation enrichment (c-Abl (mouse)): 0.521
- phosphorylation enrichment (Fes): 0.675
- phosphorylation enrichment (Fer (mouse)): 0.436
- phosphorylation enrichment (AncSZ): 0.676
- phosphorylation enrichment (EPHB1): 0.457
- phosphorylation enrichment (FGFR3): 0.602
- phosphorylation enrichment (Jak2): 0.633
- phosphorylation enrichment (FGFR1): 0.456
- phosphorylation enrichment (Hck): 0.484

- SH2 binding enrichment (c-Src SH2): 0.503
- SH2 binding enrichment (Grb2 SH2): 0.755
- SH2 binding enrichment (SHP2-C SH2): 0.698
Sequence: LDVGEYCVPRG [BEX1_Y43_A40V]
- phosphorylation enrichment (Fyn): 1.09
- phosphorylation enrichment (MERTK): 0.568
- phosphorylation enrichment (EPHB2): 2.47
- phosphorylation enrichment (c-Src): 0.539
- phosphorylation enrichment (c-Abl (mouse)): 3.73
- phosphorylation enrichment (Fes): 1.21
- phosphorylation enrichment (Fer (mouse)): 0.842
- phosphorylation enrichment (AncSZ): 5.36
- phosphorylation enrichment (EPHB1): 2.26
- phosphorylation enrichment (FGFR3): 1.23
- phosphorylation enrichment (Jak2): 1.32
- phosphorylation enrichment (FGFR1): 0.982
- phosphorylation enrichment (Hck): 0.853

- SH2 binding enrichment (c-Src SH2): 0.39
- SH2 binding enrichment (Grb2 SH2): 0.562
- SH2 binding enrichment (SHP2-C SH2): 0.484
Sequence: KGEDFYCVTYH [FHL1_Y149_C153Y]
- phosphorylation enrichment (Fyn): 2.6
- phosphorylation enrichment (MERTK): 3.58
- phosphorylation enrichment (EPHB2): 1.12
- phosphorylation enrichment (c-Src): 2.37
- phosphorylation enrichment (c-Abl (mouse)): 1.04
- phosphorylation enrichment (Fes): 1.5
- phosphorylation enrichment (Fer (mouse)): 2.15
- phosphorylation enrichment (AncSZ): 1.84
- phosphorylation enrichment (EPHB1): 1.09
- phosphorylation enrichment (FGFR3): 1.22
- phosphorylation enrichment (Jak2): 1.25
- phosphorylation enrichment (FGFR1): 1.1
- phosphorylation enrichment (Hck): 1.71

- SH2 binding enrichment (c-Src SH2): 0.623
- SH2 binding enrichment (Grb2 SH2): 0.922
- SH2 binding enrichment (SHP2-C SH2): 0.727
Sequence: DYLEKYYKFGS [NNMT_Y24]
- phosphorylation enrichment (Fyn): 0.436
- phosphorylation enrichment (MERTK): 0.494
- phosphorylation enrichment (EPHB2): 0.436
- phosphorylation enrichment (c-Src): 0.636
- phosphorylation enrichment (c-Abl (mouse)): 0.458
- phosphorylation enrichment (Fes): 0.768
- phosphorylation enrichment (Fer (mouse)): 0.369
- phosphorylation enrichment (AncSZ): 0.631
- phosphorylation enrichment (EPHB1): 0.33
- phosphorylation enrichment (FGFR3): 0.553
- phosphorylation enrichment (Jak2): 0.791
- phosphorylation enrichment (FGFR1): 0.486
- phosphorylation enrichment (Hck): 0.402

- SH2 binding enrichment (c-Src SH2): 0.576
- SH2 binding enrichment (Grb2 SH2): 0.936
- SH2 binding enrichment (SHP2-C SH2): 0.547
Sequence: AKIDGYIISFR
- phosphorylation enrichment (Fyn): 0.412
- phosphorylation enrichment (MERTK): 0.37
- phosphorylation enrichment (EPHB2): 0.412
- phosphorylation enrichment (c-Src): 0.315
- phosphorylation enrichment (c-Abl (mouse)): 0.559
- phosphorylation enrichment (Fes): 1.13
- phosphorylation enrichment (Fer (mouse)): 0.386
- phosphorylation enrichment (AncSZ): 1.1
- phosphorylation enrichment (EPHB1): 0.575
- phosphorylation enrichment (FGFR3): 0.654
- phosphorylation enrichment (Jak2): 1.06
- phosphorylation enrichment (FGFR1): 0.472
- phosphorylation enrichment (Hck): 0.365

- SH2 binding enrichment (c-Src SH2): 0.517
- SH2 binding enrichment (Grb2 SH2): 0.811
- SH2 binding enrichment (SHP2-C SH2): 0.716
Sequence: IRRWVYPLTPE [EIF2B5_Y319]
- phosphorylation enrichment (Fyn): 0.514
- phosphorylation enrichment (MERTK): 0.476
- phosphorylation enrichment (EPHB2): 0.522
- phosphorylation enrichment (c-Src): 0.437
- phosphorylation enrichment (c-Abl (mouse)): 0.464
- phosphorylation enrichment (Fes): 0.943
- phosphorylation enrichment (Fer (mouse)): 0.559
- phosphorylation enrichment (AncSZ): 0.934
- phosphorylation enrichment (EPHB1): 0.406
- phosphorylation enrichment (FGFR3): 0.613
- phosphorylation enrichment (Jak2): 0.732
- phosphorylation enrichment (FGFR1): 0.451
- phosphorylation enrichment (Hck): 0.481

- SH2 binding enrichment (c-Src SH2): 1.31
- SH2 binding enrichment (Grb2 SH2): 0.993
- SH2 binding enrichment (SHP2-C SH2): 0.6
Sequence: VITDYYVDMKF [MPP4_Y567]
- phosphorylation enrichment (Fyn): 0.881
- phosphorylation enrichment (MERTK): 1.15
- phosphorylation enrichment (EPHB2): 1.98
- phosphorylation enrichment (c-Src): 0.88
- phosphorylation enrichment (c-Abl (mouse)): 1.18
- phosphorylation enrichment (Fes): 1.23
- phosphorylation enrichment (Fer (mouse)): 1.4
- phosphorylation enrichment (AncSZ): 1.61
- phosphorylation enrichment (EPHB1): 3.65
- phosphorylation enrichment (FGFR3): 5.31
- phosphorylation enrichment (Jak2): 2.25
- phosphorylation enrichment (FGFR1): 7.13
- phosphorylation enrichment (Hck): 0.929
